PMC12373895

Assays:
Assay in all cases: ELONA
[1] = molecular target: T1, ERA GTPase (Staphylococcus aureus, UniProt Q2FY06 1-299)
T1 sequence: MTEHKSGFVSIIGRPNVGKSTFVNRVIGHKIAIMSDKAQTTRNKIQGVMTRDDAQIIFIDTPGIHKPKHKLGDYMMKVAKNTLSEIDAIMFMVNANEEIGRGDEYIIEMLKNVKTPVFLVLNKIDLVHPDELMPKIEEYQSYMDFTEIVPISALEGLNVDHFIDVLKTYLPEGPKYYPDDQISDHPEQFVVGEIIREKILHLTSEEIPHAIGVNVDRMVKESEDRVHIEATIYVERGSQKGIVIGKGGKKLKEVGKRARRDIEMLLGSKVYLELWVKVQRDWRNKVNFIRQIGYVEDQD

[2] = molecular target: T2, 1F8 (Chagas antigenic protein) (Trypanosoma cruzi, UniProt P07749 1-211)
T2 sequence: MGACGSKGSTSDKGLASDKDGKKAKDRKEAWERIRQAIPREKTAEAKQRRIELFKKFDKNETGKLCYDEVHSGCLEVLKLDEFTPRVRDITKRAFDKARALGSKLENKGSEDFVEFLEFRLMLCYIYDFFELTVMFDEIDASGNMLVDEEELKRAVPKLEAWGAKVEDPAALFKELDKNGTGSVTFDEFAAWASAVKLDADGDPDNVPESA

[3] = molecular target: T1, ERA GTPase; remark: listed apart in the source
[4] = molecular target: T3, ERA deltaKH (Staphylococcus aureus, UniProt Q2FY06 1-202)
T3 sequence: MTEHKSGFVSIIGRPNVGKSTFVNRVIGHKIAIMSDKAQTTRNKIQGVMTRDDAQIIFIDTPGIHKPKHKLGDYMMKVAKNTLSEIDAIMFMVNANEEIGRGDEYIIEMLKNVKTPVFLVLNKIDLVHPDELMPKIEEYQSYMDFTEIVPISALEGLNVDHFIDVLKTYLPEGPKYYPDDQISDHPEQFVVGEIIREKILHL

Binder: TACTAGCCCTACCTGTACTCTCGAGCCGATTTTAAGGATC (ssDNA) [AptERA 2 (40 nt)]
- Kd [1]: 243 ± 16 nM
- binding result [2]: no binding
- apparent K (half saturation) [3]: 185 ± 3 nM
- binding result [4]: no binding
